Assay results taken from publication PMC9482650, “Quantitative fragmentomics allow affinity mapping of interactomes” (Nature Communications, 2022).

T1: APBA1_1, Q02410
T1 sequence (Q02410 651-752, limits assumed, looked up): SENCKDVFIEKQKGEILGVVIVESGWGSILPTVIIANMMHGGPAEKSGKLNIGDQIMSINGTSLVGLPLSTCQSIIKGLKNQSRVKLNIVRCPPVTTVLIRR

T2: ARHGEF11, O15085
T2 sequence (O15085 42-136, limits assumed, looked up): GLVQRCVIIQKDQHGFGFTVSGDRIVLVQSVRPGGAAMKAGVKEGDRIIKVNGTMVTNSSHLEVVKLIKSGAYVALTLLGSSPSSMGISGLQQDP

T3: DLG3_2, Q92796
T3 sequence (Q92796 221-321, limits assumed, looked up): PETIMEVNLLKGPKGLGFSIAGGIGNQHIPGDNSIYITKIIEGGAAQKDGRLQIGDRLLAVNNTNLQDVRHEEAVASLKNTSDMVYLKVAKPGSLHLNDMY

T4: FRMPD1, Q5SYB0
T4 sequence (Q5SYB0 52-145, limits assumed, looked up): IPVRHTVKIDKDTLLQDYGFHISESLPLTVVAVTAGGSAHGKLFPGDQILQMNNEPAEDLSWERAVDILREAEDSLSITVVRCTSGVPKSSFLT

T5: HTRA3, P83110
T5 sequence (P83110 354-453, limits assumed, looked up): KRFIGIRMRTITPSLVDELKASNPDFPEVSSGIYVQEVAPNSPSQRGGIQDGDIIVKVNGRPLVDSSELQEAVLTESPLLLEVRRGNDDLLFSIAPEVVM

T6: LIN7B, Q9HAP6
T6 sequence (Q9HAP6 88-185, limits assumed, looked up): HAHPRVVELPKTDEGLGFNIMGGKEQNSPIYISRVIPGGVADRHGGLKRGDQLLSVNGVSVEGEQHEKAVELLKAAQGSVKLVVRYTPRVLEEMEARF

T7: NHERF3_3, Q5T2W1
T7 sequence (Q5T2W1 238-333, limits assumed, looked up): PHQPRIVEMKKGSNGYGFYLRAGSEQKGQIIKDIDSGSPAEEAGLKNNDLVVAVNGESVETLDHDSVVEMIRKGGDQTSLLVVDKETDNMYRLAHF

T8: RHPN1, Q8TCX5
T8 sequence (Q8TCX5 508-602, limits assumed, looked up): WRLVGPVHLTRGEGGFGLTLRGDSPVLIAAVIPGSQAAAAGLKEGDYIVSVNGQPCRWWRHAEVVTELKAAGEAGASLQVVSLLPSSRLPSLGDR

T9: SNTA1, Q13424
T9 sequence (Q13424 82-180, limits assumed, looked up): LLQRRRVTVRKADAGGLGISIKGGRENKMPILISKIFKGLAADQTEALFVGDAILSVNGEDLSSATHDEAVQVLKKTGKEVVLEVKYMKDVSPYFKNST


What was measured:
Assay in all cases: holdup assay
Design in all cases: key: below the threshold = too weak to quantify, mostly under pKd 3.1 to 4
Conditions in all cases: plain residues with an end cap or a label only (N-terminal biotin on a linker: ado-ado)
[1] = biological target: T1, APBA1_1, Q02410
[2] = biological target: T2, ARHGEF11, O15085
[3] = biological target: T3, DLG3_2, Q92796
[4] = biological target: DLG4_2, P78352
Sequence of DLG4_2, P78352 (P78352 155-259): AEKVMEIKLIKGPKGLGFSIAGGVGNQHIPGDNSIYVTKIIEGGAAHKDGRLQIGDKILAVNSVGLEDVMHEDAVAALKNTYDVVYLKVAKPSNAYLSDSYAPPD

[5] = biological target: T4, FRMPD1, Q5SYB0
[6] = biological target: FRMPD2_1, Q68DX3
Sequence of FRMPD2_1, Q68DX3 (Q68DX3 770-861): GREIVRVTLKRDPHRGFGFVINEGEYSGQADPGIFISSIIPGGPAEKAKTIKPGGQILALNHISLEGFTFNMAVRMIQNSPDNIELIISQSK

[7] = biological target: FRMPD2_3, Q68DX3
Sequence of FRMPD2_3, Q68DX3 (Q68DX3 1073-1166): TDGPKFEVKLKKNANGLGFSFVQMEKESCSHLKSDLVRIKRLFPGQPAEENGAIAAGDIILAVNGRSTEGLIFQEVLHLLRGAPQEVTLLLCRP

[8] = biological target: GIPC2, Q8TF65
Sequence of GIPC2, Q8TF65 (Q8TF65 112-203): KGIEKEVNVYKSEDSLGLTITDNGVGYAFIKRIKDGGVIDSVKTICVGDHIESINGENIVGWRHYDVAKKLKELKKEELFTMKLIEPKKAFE

[9] = biological target: GOPC, Q9HD26
[10] = biological target: GORASP1, Q9BQQ3
Sequence of GORASP1, Q9BQQ3 (Q9BQQ3 1-208): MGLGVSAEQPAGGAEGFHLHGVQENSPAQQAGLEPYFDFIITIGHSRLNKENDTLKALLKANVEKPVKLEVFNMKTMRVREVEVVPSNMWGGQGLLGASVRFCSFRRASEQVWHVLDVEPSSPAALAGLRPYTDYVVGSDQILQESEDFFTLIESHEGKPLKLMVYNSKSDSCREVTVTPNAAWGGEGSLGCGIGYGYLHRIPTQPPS

[11] = biological target: T5, HTRA3, P83110
[12] = biological target: Inadl_1, Q8NI35
Sequence of Inadl_1, Q8NI35 (Q8NI35 113-229): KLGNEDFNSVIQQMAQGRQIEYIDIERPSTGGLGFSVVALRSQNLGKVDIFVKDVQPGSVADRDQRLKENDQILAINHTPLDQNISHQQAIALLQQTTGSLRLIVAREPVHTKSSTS

[13] = biological target: Inadl_10, Q8NI35
Sequence of Inadl_10, Q8NI35 (Q8NI35 1673-1763): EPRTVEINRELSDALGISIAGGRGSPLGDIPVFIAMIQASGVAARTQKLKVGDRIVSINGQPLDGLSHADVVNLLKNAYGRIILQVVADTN

[14] = biological target: Inadl_4, Q8NI35
Sequence of Inadl_4, Q8NI35 (Q8NI35 547-651): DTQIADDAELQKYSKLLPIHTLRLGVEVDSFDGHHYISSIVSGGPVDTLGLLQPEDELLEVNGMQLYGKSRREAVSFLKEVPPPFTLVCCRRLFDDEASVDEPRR

[15] = biological target: Inadl_6, Q8NI35
Sequence of Inadl_6, Q8NI35 (Q8NI35 1058-1167): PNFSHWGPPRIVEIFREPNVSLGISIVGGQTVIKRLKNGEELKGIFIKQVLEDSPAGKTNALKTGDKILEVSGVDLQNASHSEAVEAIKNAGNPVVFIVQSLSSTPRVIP

[16] = biological target: Inadl_8, Q8NI35
Sequence of Inadl_8, Q8NI35 (Q8NI35 1425-1530): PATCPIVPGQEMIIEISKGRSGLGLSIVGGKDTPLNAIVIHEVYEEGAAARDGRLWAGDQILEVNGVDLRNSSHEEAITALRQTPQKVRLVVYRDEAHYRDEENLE

[17] = biological target: T6, LIN7B, Q9HAP6
[18] = biological target: LNX1_2, Q8TBB1
Sequence of LNX1_2, Q8TBB1 (Q8TBB1 371-470): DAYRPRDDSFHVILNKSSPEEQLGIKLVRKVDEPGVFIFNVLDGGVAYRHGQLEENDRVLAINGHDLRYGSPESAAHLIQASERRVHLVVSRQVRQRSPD

[19] = biological target: LNX1_3, Q8TBB1
Sequence of LNX1_3, Q8TBB1 (Q8TBB1 500-596): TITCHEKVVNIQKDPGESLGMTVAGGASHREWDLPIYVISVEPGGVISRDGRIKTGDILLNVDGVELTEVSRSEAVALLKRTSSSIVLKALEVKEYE

[20] = biological target: MAGI1_2, Q96QZ7
Sequence of MAGI1_2, Q96QZ7 (Q96QZ7 456-580): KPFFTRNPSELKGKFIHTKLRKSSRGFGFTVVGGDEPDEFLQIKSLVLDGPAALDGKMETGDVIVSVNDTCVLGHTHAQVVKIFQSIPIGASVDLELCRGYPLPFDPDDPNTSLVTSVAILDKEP

[21] = biological target: MAGI2_3, Q86UL8
Sequence of MAGI2_3, Q86UL8 (Q86UL8 600-682): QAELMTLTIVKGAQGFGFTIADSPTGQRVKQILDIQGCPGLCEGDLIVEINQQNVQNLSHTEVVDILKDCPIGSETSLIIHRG

[22] = biological target: MAGI3_2, Q5TCQ9
Sequence of MAGI3_2, Q5TCQ9 (Q5TCQ9 398-503): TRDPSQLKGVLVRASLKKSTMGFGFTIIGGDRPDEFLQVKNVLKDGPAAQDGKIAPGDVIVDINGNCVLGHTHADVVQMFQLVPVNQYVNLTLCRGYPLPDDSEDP

[23] = biological target: MAST2, Q6P0Q8
Sequence of MAST2, Q6P0Q8 (Q6P0Q8 1099-1202): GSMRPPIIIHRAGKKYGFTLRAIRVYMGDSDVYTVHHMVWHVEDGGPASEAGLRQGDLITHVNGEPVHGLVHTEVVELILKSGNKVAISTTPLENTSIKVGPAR

[24] = biological target: T7, NHERF3_3, Q5T2W1
[25] = biological target: NHERF4_4, Q86UT5
Sequence of NHERF4_4, Q86UT5 (Q86UT5 464-550): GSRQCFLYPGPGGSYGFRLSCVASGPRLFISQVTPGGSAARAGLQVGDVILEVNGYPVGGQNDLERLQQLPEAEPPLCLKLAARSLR

[26] = biological target: PARD3_3, Q8TEW0
Sequence of PARD3_3, Q8TEW0 (Q8TEW0 582-685): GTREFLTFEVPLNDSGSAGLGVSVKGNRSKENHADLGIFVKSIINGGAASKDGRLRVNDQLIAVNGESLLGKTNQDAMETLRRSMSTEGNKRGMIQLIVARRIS

[27] = biological target: T8, RHPN1, Q8TCX5
[28] = biological target: T9, SNTA1, Q13424

Binder	pKd [1]	pKd [2]	pKd [3]	pKd [4]	pKd [5]	pKd [6]	pKd [7]	pKd [8]	pKd [9]	pKd [10]	pKd [11]	pKd [12]	pKd [13]	pKd [14]	pKd [15]	pKd [16]	pKd [17]	pKd [18]	pKd [19]	pKd [20]	other results
QSARLWETSI [ADAM22, Q9P0K1]	below the threshold	3.79	4.32	4.18	below the threshold	below the threshold	below the threshold	4.11	4.42	below the threshold	below the threshold	3.84	3.8	below the threshold	4.06	3.81	4.35	below the threshold	below the threshold	below the threshold	pKd [21]: below the threshold; pKd [22]: 4.22; pKd [23]: 5.62; pKd [24]: below the threshold; pKd [25]: 3.91; pKd [26]: 3.74; pKd [27]: 4.57; pKd [28]: 4.49
SAAKVLTSMC [GHRHR, Q02643]	below the threshold	4.21	4.12	3.63	below the threshold	below the threshold	below the threshold	below the threshold	below the threshold	below the threshold	4.24	below the threshold	below the threshold	below the threshold	below the threshold	4.06	3.7	below the threshold	below the threshold	below the threshold	pKd [21]: below the threshold; pKd [22]: below the threshold; pKd [23]: 4.15; pKd [24]: below the threshold; pKd [25]: below the threshold; pKd [26]: below the threshold; pKd [27]: 4.06; pKd [28]: below the threshold
